Data on one molecule can be found in US20130095480A1 (BOARD OF TRUSTEES OF THE UNIVERSITY OF ARKANSAS, published 2013).

In this assay the target is T1, Chondroitin Sulfate Proteoglycan 4 (CSPG4) (human, UniProt Q6UVK1 30-2322, carries chondroitin sulfate (CS) glycosaminoglycan chains).
T1 construct: whole, on cells; also called High Molecular Weight Melanoma Associated Antigen; Melanoma Chondroitin Sulfate Proteoglycan
Kind of assay: flow cytometry, recombinant P-selectin/Fc on M14-CSPG4 versus mock-transfected M14 cells. The method, then:
Briefly, cells were incubated with mAb or P-selectin/Fc, washed and stained with FITC-conjugated anti-mouse IgM or anti-human IgG prior to binding detection by flow cytometry. R-phycoerythrin-conjugated polyclonal goat anti-mouse F(ab′)₂ was used as secondary for detection of anti-CSPG4 binding.

T1 sequence (Q6UVK1 30-2322): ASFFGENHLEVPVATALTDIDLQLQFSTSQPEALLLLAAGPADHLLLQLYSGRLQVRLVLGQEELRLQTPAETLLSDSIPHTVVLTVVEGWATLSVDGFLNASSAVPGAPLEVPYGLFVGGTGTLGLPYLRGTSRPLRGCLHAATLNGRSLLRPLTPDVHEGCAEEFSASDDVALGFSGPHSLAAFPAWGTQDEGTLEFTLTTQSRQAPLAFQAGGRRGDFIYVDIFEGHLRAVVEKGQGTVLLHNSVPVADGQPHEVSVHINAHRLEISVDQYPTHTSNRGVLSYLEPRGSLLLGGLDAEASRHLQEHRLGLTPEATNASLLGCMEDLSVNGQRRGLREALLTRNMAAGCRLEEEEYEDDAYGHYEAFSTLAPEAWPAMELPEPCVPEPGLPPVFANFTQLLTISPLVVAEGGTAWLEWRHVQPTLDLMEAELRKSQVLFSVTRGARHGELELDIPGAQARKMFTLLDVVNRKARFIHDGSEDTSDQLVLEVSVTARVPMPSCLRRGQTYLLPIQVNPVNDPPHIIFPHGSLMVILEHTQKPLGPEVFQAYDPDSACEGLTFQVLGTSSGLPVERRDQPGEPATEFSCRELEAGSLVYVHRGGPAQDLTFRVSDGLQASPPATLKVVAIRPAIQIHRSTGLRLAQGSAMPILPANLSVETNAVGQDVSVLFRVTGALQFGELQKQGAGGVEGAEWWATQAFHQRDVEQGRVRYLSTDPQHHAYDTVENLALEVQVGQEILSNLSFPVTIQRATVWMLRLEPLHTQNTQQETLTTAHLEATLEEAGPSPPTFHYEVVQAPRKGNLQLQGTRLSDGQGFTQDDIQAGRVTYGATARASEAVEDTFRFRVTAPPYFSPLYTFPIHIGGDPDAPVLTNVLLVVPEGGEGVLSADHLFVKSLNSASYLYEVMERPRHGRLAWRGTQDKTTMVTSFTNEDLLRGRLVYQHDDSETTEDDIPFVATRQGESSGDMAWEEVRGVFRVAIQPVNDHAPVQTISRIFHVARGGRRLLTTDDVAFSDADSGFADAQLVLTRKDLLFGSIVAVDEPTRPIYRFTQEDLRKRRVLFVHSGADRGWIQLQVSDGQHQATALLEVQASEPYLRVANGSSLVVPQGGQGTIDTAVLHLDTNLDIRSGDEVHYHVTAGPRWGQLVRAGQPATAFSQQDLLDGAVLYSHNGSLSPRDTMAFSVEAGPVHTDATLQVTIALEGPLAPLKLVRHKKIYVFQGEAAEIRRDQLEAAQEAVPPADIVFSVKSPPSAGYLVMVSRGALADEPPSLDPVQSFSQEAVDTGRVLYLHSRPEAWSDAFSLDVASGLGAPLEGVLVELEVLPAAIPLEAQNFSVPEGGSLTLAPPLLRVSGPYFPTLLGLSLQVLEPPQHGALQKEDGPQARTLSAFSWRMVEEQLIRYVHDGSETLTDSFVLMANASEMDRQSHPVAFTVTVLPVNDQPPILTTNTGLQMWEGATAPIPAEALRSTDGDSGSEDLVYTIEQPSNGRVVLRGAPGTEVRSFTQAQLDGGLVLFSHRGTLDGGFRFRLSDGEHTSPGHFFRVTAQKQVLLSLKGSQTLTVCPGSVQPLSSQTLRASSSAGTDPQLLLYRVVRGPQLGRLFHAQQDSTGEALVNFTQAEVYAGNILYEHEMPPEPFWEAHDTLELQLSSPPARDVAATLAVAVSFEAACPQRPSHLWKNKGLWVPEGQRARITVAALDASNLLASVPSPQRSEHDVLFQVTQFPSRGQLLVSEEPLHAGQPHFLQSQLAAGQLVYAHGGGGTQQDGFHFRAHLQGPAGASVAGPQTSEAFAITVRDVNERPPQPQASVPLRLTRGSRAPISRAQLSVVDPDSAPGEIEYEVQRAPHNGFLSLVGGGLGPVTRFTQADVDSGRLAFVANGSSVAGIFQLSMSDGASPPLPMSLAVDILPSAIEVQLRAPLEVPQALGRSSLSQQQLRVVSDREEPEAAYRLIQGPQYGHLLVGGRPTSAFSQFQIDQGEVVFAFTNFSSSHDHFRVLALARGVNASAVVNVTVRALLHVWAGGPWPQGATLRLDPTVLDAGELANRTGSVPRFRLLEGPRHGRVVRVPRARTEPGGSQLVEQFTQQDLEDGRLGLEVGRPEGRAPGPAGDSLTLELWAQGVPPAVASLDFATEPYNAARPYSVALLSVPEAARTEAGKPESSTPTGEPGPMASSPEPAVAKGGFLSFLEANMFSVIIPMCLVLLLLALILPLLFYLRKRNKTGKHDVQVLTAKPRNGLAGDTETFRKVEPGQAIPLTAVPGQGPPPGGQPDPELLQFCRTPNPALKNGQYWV

B1: recombinant human P-selectin/Fc (human IgG) (Fc fusion, UniProt P16109 42-771, looked up)
chain: WTYHYSTKAYSWNISRKYCQNRYTDLVAIQNKNEIDYLNKVLPYYSSYYWIGIRKNNKTWTWVGTKKALTNEAENWADNEPNNKRNNEDCVEIYIKSPSAPGKWNDEHCLKKKHALCYTASCQDMSCSKQGECLETIGNYTCSCYPGFYGPECEYVRECGELELPQHVLMNCSHPLGNFSFNSQCSFHCTDGYQVNGPSKLECLASGIWTNKPPQCLAAQCPPLKIPERGNMTCLHSAKAFQHQSSCSFSCEEGFALVGPEVVQCTASGVWTAPAPVCKAVQCQHLEAPSEGTMDCVHPLTAFAYGSSCKFECQPGYRVRGLDMLRCIDSGHWSAPLPTCEAISCEPLESPVHGSMDCSPSLRAFQYDTNCSFRCAEGFMLRGADIVRCDNLGQWTAPAPVCQALQCQDLPVPNEARVNCSHPFGAFRYQSVCSFTCNEGLLLVGASVLQCLATGNWNSVPPECQAIPCTPLLSPQNGTMTCVQPLGSSSYKSTCQFICDEGYSLSGPERLDCTRSGRWTDSPPMCEAIKCPELFAPEQGSLDCSDTRGEFNVGSTCHFSCDNGFKLEGPNNVECTTSGRWSATPPTCKGIASLPTPGVQCPALTTPGQGTMYCRHHPGTFGFNTTCYFGCNAGFTLIGDSTLSCRPSGQWTAVTPACRAVKCSELHVNKPIAMNCSNLWGNFSYGSICSFHCLEGQLLNGSAQTACQENGHWSTTVPTCQAGPLTIQEA
notes: Bought reagent (R&D Systems); also called recombinant P-selectin; not shown: Fc of human IgG
Regarding B1, the binding result is reported as “binds”.
